From article PMC10406935

How the values were obtained:
[1] = target: MslH (lasso peptide epimerase), N-terminally His6-tagged, wild type (Streptomyces griseorubiginosus); experiment: SEC; gel-filtration of purified recombinant His6-MslH; apparent molecular weight against the 49.4 kDa calculated for the monomer
[2] = target: MslH (lasso peptide epimerase), N-terminally His6-tagged, wild type (Streptomyces griseorubiginosus); experiment: crystal structure; co-crystallisation: purified His6-MslA analogue-MslB1 complex mixed with His6-MslH (5 mg/ml) at 1.2:1 mole ratio 16 h before the precipitant; sitting drops, 20 °C; one monomer in the asymmetric unit
[3] = target: MslH (lasso peptide epimerase), N-terminally His6-tagged, wild type (Streptomyces griseorubiginosus); experiment: crystal structure; MslH:apo, His6-MslH 5 mg/ml, sitting-drop vapor diffusion, 20 °C; space group I422, one monomer in the asymmetric unit; 2.30 Å

Measured: stoichiometry N

MslH (lasso peptide epimerase), N-terminally His6-tagged, wild type (enzyme)
8: all assays above
